Reference: patent US20200140868

Target: T1, Recombinant FANCE (149-536) wild-type, Q9HB96
T1 chain: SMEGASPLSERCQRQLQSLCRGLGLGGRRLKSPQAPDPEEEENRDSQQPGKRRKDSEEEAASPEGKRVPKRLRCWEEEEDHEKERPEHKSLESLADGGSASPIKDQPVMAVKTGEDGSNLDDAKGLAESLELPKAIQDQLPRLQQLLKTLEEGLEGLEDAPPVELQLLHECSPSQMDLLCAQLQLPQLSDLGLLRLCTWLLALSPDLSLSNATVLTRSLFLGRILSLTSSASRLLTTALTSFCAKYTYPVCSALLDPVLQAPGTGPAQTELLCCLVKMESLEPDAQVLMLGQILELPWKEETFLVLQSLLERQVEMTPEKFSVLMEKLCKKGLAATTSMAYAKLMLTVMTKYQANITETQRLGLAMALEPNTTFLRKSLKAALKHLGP

B1: purified recombinant Chk1 (Upstate Technology) (protein)
chain: MAVPFVEDWDLVQTLGEGAYGEVQLAVNRVTEEAVAVKIVDMKRAVDCPENIKKEICINKMLNHENVVKFYGHRREGNIQYLFLEYCSGGELFDRIEPDIGMPEPDAQRFFHQLMAGVVYLHGIGITHRDIKPENLLLDERDNLKISDFGLATVFRYNNRERLLNKMCGTLPYVAPELLKRREFHAEPVDVWSCGIVLTAMLAGELPWDQPSDSCQEYSDWKEKKTYLNPWKKIDSAPLALLHKILVENPSARITIPDIKKDRWYNKPLKKGAKRPRVTSGGVSESPSGFSKHIQSNLDFSPVNSASSEENVKYSSSQPEPRTGLSLWDTSPSYIDKLVQGISFSQPTCPDHMLLNSQLLGTPGSSQNPWQRLVKRMTRFFTKLDADKSYQCLKETCEKLGYQWKKSCMNQVTISTTDRRNNKLIFKVNLLEMDDKILVDFRLSKGDGLEFKRHFLKIKGKLIDIVSSQKIWLPAT
  in vitro kinase assay, Western blot with anti-pT346-FANCE and anti-pS374-FANCE: the recombinant FANCE (rFANCEwt) protein phosphorylated by Chk1 in vitro
